The labels stand for the following.
B1: CPEB3 Ribozyme (parent)
chain: UAACAGGGGGCCACAGCAGAAGCGUUCACGUCGCAGCCCCUGUCAGAUUCUGGUGAAUCUGCGAAUUCUGCUGUAUAUCUC

The variants in this data set derive from B1. In words: self-cleavage, relative activity (ratio to wild type); higher = more cleavage; in vitro, sequencing. Put shortly: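 After error-prone PCR and barcoding, CPEB3 ribozyme mutant libraries were transcribed with T7 RNA polymerase at 37°C for 5 hours, then given 15 min with DNase I before an EDTA stop, and they cleaved during both steps. Reverse transcription with template switching preceded Illumina sequencing. Relative activity divides a variant's cleaved/total read fraction by the unmutated ribozyme's. At least 5 reads were required per variant, and three batches were averaged.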
In the case of UAACAGGGGGCCACAGCAGAAGCGUUCACGUCGCAGCCCCUGUCAGAUUCUGGUGAAUCUGCGAAUUCUGCAGUAUAACUC [U72A U78A], the self-cleavage was found to be 0.72.
The same measure for UAACAGGGGGCCACAGCAGAAGCGCUCACGUCGCAGCCCCUGUCAGAUUCUGGUGAAUCUGUGAAUUCUGCUGUAUAUCUC [U25C C62U]: 0.11.
In the case of UAACAGGGGGCCACAGCAGAAUCGUUCACGUCGCAGCCCCUGUCAGAUUCUGGUGAAUCUGCGAAUUCUGCUGUUUAUCUC [G22U A75U], the self-cleavage is 0.26.
The same measure for UAACAGGGGGCCACAGCAGAAGCGUUCACGUCGCAGGCCCUUUCAGAUUCUGGUGAAUCUGCGAAUUCUGCUGUAUAUCUC [C37G G42U]: 0.29.
As to UAUAAGGGGGCCACAGCAGAAGCGUUCACGUCGCAGCCCCUGUCAGAUUCUGGUGAAUCUGCGAAUUCUGCUGUAUAUCUC [A3U C4A], the self-cleavage came out at 1.22.
On to UAACAGGGGGCCACAGGAGAAGCGUUCACGUCGCAGCCCCUGUCAGAUUCUGGUGAAUCUGCGAAUUCUGCUGUAUACCUC [C17G U78C], for which the self-cleavage was 0.48.
The same measure for UAACAGGGGUCCACAGCAGAAGCGUUCACGUCGCAGCCCCUGUCAGAUUCUGUUGAAUCUGCGAAUUCUGCUGUAUAUCUC [G10U G53U]: 0.24.
Turning to UAACAGGGGGCCACAGCAGAAGCGUUCACGUCGCAGCCCCUGCCAGAUCCUGGUGAAUCUGCGAAUUCUGCUGUAUAUCUC [U43C U49C], the self-cleavage is 0.24.
UAACAGGGGGCCACAGCAGAAGCGUUCACGUCGCAGCCCCUGUCAGAUUCUGGUGAAUCUGCGAACUCUGCUGAAUAUCUC [U66C U74A]: the self-cleavage was found to be 0.62.
The same measure for UAACAGGGGACCACAGCAGAAGCGUUCACGUCGCAGCCCCUGACAGAUUCUGGUGAAUCUGCGAAUUCUGCUGUAUAUCUC [G10A U43A]: 0.28; for UAACAUGGGGCCACAGCAGAAGCGUUCACGUCGCAGCCCCUGUCGGAUUCUGGUGAAUCUGCGAAUUCUGCUGUAUAUCUC [G6U A45G]: 0.11; for UAACAGGGGGCCACAGCAGAAGCGUUCACGUCGCCGCCCCUGUCAGAUUCUGGUGAAUCUGCGAAUUCUGCGGUAUAUCUC [A35C U72G]: 0.43.
Regarding UAACAGGGGGCCACAGCAGAAGCGUUCGCGUCGCAGCCCCUGUCAGAUACUGGUGAAUCUGCGAAUUCUGCUGUAUAUCUC [A28G U49A], the self-cleavage is 0.31.
The same measure for UAACAGGGGGCCACAGCAGAAGCGUUCACGUCGCAGCCCCUGUCAGAAUCUGGUGAAUCUGCGGAUUCUGCUGUAUAUCUC [U48A A64G]: 0.26; for UAACAGGGGGCCACAGCAGAAGCGUUCACGCCGCAGCCCCUGUCAGAUUCUGGUGAAUCUGCGAAUUCUGCUGUAUAUCGC [U31C U80G]: 1.13.
As for UAACAGGGGGCCACAGCAGAAGCGUUCACGUCGCAGCCCCUGACAGAUUCUGGUGAAUCUGCGUAUUCUGCUGUAUAUCUC [U43A A64U], the self-cleavage amounted to 0.51.
The same measure for UAACGGGGGGCCACAGCAGAAGCGUUCACGUCGCAGCCCCUGUCAGAUUCAGGUGAAUCUGCGAAUUCUGCUGUAUAUCUC [A5G U51A]: 0.63; for UAACAGGGGGCCACAGCAGAAGCGUUCACGUCGCAGCCCCAGUCAGAUUCUGGUGAAUCUGCGAAUUCUGCUGUGUAUCUC [U41A A75G]: 0.27.
The same measure for UAACAGGGGGCCACGGCAGAAGCGUUCACGUCGCAGCCCCUGUCAGAUUCUGCUGAAUCUGCGAAUUCUGCUGUAUAUCUC [A15G G53C]: 1.05; for UAACAGGGGGCCACAGCAGAAGCGUUCACGUCGCAGCCCCUGUCAGAUUCUGGUGAAUCUGCGAAUUCCGCUGUAUAUCUC [U69C]: 0.59.
Take UAACAGGGGGCCACACCAGAAGCCUUCACGUCGCAGCCCCUGUCAGAUUCUGGUGAAUCUGCGAAUUCUGCUGUAUAUCUC [G16C G24C]: the self-cleavage was 0.2.
Consider UAGCAGGGGGCCACAGCAGAAGCGUUCACGUCGCAGCCCCUGUCAGAUUCUGGUGAAUCUGCUAAUUCUGCUGUAUAUCUC [A3G G63U], for which the self-cleavage was 1.12.
As for UAACAGGGGGUCACAGCAGAAGCGUUCACGUAGCAGCCCCUGUCAGAUUCUGGUGAAUCUGCGAAUUCUGCUGUAUAUCUC [C11U C32A], the self-cleavage came to 0.2.
UAACAGGGGGCCACAGUAGAAGCGUUCACGUCGCAGCCCCUGUCAGAUUCUGGUGAAUCUGCGAAUUCUGCUGAAUAUCUC [C17U U74A]: the self-cleavage was found to be 1.02.
The same measure for UAACAGGGGGCCACAGCAGAAGCGUUCACGUCGCAGCCCCUGUCAGAUCCUGGUGAAUAUGCGAAUUCUGCUGUAUAUCUC [U49C C59A]: 0.09; for UAACAGGGGGCCACAGCAGUAGCGCUCACGUCGCAGCCCCUGUCAGAUUCUGGUGAAUCUGCGAAUUCUGCUGUAUAUCUC [A20U U25C]: 0.31; for UAACAGGGGGCCACAGCAGAAGCGUUCACGUCGCAGCCCCUGUCAGAUUCUGGUGAGUCUGCGAUUUCUGCUGUAUAUCUC [A57G A65U]: 0.32.
Consider UAACAGGGGGCCACAGCAGAAGCGUUCAAGCCGCAGCCCCUGUCAGAUUCUGGUGAAUCUGCGAAUUCUGCUGUAUAUCUC [C29A U31C], for which the self-cleavage was determined as 0.3.
On to UAACAGGGGGCCACAGCAGAAGCGUUCACGUCGCAGCCCCUGUCUGAUUCUGGUGAAUCUGCGAAUUCUGCUGUAUAUUUC [A45U C79U], for which the self-cleavage was 0.77.
Consider UAACAGGGGGCCACAGCAGAGGCGUUCACGUCGCAGCCCCUGUCAGAUUCUGGUGAGUCUGCGAAUUCUGCUGUAUAUCUC [A21G A57G], for which the self-cleavage turned out to be 0.49.
In the case of UAACAGGAGGCCACAGCAGAAGCGUUCACGUCGCAGCCCCUGUCAGAUUCUGGUGAAUCUGCGAAUUAUGCUGUAUAUCUC [G8A C68A], the self-cleavage was found to be 0.2.
On to UAACAGGGGGCCACAGCUGAAGCGUUCACGUCGCAGCCCCUGUCCGAUUCUGGUGAAUCUGCGAAUUCUGCUGUAUAUCUC [A18U A45C], for which the self-cleavage was 0.16.
The same measure for UAACAGGUGGCCACUGCAGAAGCGUUCACGUCGCAGCCCCUGUCAGAUUCUGGUGAAUCUGCGAAUUCUGCUGUAUAUCUC [G8U A15U]: 0.4; for UAACAGGGGGCCACAGCAGAAGCGUUCACGUCGCAGCCCCUGUCCGAUUCUGGUGAAUCUGCAAAUUCUGCUGUAUAUCUC [A45C G63A]: 0.49.

Source of the values: the RNAGym collection of RNA variant scans (doi:10.1093/nar/gkz1192).
